The values that follow come from patent US20190292245A1 (published 2019).

In assay [1] the target is T1, tauΔ2-18 (UniProt P10636-8 1-441).
T1 construct: Deletion of residues 2-18; also called tau that lacks 2-18 domain; recombinant tauΔ2-18
As to the kind of experiment: Western blot. (In general: In western blotting, separated proteins are transferred to a membrane and probed.)

Assay [2] addresses T1, tauΔ2-18. As to the kind of experiment: blot.

T1 sequence (P10636 other isoform, or with tags, fused parts or gaps mutant limits assumed): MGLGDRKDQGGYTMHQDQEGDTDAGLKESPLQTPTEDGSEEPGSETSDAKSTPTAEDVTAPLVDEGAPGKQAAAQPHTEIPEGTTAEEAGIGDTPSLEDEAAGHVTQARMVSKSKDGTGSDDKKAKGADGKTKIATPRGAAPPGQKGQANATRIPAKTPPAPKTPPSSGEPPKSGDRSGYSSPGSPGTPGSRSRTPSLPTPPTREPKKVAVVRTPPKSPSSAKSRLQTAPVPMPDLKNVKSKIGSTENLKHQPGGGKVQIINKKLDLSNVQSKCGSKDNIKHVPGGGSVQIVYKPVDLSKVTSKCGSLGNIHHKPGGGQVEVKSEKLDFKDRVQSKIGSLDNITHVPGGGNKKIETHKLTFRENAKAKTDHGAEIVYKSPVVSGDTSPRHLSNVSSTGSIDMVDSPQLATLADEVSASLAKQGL

B1: mouse monoclonal antibody 1C9 (antibody, V domains shown)
VH: EVQLQQSGTVLARPGASVKMSCKTSGYTFTNHWMHWVKQRPGQGLEWIGAIDPGNSDTSYNQKFKGQAKLTAVTSASTAFMELSSLTNEDSAVYYCTRRDFFGGEYAVDYWGQGTSVTVSS
VL: DVVMTQTPLSLPVSLGDQASISCRSSQSLVHSNGNTYLHWYLQKPGQSPKLLIYKVSNRFSGVPDRFSGSGSGTDFTLKISRVEAEDLGVYFCSQSTHVPWTFGGGTKLEIK
notes: also called 1C9 mAb; 1C9 moAb
With B1, in the assay with tauΔ2-18 [1], the binding result is given as “no binding”.

B2: Armanezumab (antibody, V domains shown)
VH: QVQLVQSGAEVKKPGASVKVSCKASGYTFTNHWMHWVRQAPGQGLEWMGAIDPGNSDTSYNQKFKGRVTMTRDTSTSTVYMELSSLRSEDTAVYYCARRDFFGGEYAVDYWGQGTLVTVSS
VL: DIVMTQSPLSLPVTPGEPASISCRSSQSLVHSNGNTYLHWYLQKPGQSPQLLIYKVSNRFSGVPDRFSGSGSGTDFTLKISRVEAEDVGVYYCSQSTHVPWTFGQGTKVEIKR
notes: Fully humanized IgG derived from 1C9; also called humanized 1C9
For the molecule B2, the binding result with tauΔ2-18 [2] is recorded as “no binding”.
